Laboratory results taken from PMC6289461, “Mek1 coordinates meiotic progression with DNA break repair by directly phosphorylating and inhibiting the yeast pachytene exit regulator Ndt80”.

T1: 6xHis-Ndt80 5D DBD (Saccharomyces cerevisiae, UniProt P38830 1-340, S24D;S205D;T211D;S327D;S329D)
T1 sequence: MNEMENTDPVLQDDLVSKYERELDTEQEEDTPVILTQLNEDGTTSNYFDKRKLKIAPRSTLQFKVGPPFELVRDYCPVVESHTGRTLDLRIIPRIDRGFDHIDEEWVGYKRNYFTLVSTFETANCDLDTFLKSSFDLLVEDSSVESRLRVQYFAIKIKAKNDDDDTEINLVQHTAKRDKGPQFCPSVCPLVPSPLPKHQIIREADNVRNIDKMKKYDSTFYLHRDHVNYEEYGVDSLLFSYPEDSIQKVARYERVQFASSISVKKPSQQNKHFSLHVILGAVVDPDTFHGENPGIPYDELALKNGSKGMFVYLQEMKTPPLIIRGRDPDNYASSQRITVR

B1: Cy5-Scr duplex (dsDNA)
DNA 1: ATTGACGCGGCTTCATCTCACGTATCATT
DNA 2: AATGATACGTGAGATGAAGCCGCGTCAAT
B2: Cy3-MSE (SPS4 MSE duplex) (dsDNA)
DNA 1: ATTGACGCGCGCCACAAAAACGTATCATT
DNA 2: AATGATACGTTTTTGTGGCGCGCGTCAAT

Biological target: T1, 6xHis-Ndt80 5D DBD
Experiment: EMSA; 50 nM DBD, 50 nM duplex; EMSA: 10 mM Tris-HCl pH 7.5, 40 mM NaCl, 4 mM MgCl2, 6% glycerol, 10 mg/ml BSA, 10 ug/ml sonicated salmon sperm DNA; 20 ul, room temperature, 30 min; 6% PAGE in 0.5X TBE
Conditions: protein: recombinant, tags: N-terminal 6xHis (pET-28a), blunt

Binder | binding result (label: 5' Cy5 on strand 1) | binding result (label: 5' Cy3 on strand 1)
B1 | no binding | 
B2 |  | no binding
